Numbered stars: 1 amine (or outer) side, 2 acyl side, 3 side chain; on linkers, the order of the positions; unused ones are H or OH. Bridge positions count the residues as written; N and C are the ends. Side chains are listed from the residue outwards. Ends that are not written are not given here. * marks the point of attachment. C20 diacid = O=C(O)CCCCCCCCCCCCCCCCCCC(=O)*; γGlu = O=C(O)[C@H](CCC(=O)[*:2])N[*:1]
How the values were obtained:
[1] = biological target: T1, human amylin receptor (amylin 3(a) receptor: human calcitonin receptor co-expressed with RAMP-3) (human, UniProt P30988 25-474; O60896 24-148, limits assumed); test: cell-based or functional assay
T1 sequence (looked up) 1: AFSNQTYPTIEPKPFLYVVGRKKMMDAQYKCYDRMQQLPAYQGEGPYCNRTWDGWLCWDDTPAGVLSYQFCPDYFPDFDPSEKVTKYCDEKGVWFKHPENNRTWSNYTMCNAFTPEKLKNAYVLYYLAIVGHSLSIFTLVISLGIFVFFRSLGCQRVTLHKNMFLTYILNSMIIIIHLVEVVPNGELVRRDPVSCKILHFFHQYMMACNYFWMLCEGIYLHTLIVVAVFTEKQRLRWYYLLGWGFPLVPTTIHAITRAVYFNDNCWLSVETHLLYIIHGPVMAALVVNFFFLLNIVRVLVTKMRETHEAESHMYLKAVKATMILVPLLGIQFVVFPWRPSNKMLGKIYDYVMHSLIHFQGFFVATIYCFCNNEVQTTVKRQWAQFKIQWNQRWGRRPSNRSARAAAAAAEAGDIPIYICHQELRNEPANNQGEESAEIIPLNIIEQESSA
T1 sequence (looked up) 2: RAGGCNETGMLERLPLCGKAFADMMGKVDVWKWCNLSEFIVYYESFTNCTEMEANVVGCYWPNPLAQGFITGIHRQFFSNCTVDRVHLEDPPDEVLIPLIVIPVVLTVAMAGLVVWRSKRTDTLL

[2] = biological target: T2, human calcitonin receptor (human, UniProt P30988 25-474); test: cell-based or functional assay
T2 sequence (looked up): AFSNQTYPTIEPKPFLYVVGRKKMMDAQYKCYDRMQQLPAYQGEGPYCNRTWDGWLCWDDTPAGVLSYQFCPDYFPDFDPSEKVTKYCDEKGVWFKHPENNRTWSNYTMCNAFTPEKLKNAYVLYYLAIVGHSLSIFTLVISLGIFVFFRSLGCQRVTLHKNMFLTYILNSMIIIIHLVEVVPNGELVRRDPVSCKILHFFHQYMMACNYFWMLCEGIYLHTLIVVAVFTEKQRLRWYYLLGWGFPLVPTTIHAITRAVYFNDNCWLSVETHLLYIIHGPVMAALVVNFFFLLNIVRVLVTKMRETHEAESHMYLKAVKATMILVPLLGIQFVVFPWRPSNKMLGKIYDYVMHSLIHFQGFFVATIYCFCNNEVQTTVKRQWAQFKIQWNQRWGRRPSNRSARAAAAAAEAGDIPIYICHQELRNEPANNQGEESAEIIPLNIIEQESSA

Binder	hAmylin-R funct. EC50 [1] [nM]	Ratio hCT/hAmylin funct. (hCTR EC50 against hAmylin-R EC50) [2]	hCTR funct. EC50 [2] [nM]
K([γGlu-C20 diacid])CNTATCATQRLANFLRHSSPNFGAIPSSTNVGHNTY-NH2 (disulfide 2-7; N-terminus assumed; SMILES CC[C@H](C)[C@H](NC(=O)[C@H](C)NC(=O)CNC(=O)[C@H](Cc1ccccc1)NC(=O)[C@H](CC(N)=O)NC(=O)[C@@H]1CCCN1C(=O)[C@H](CO)NC(=O)[C@H](CO)NC(=O)[C@H](Cc1c[nH]cn1)NC(=O)[C@H](CCCNC(=N)N)NC(=O)[C@H](CC(C)C)NC(=O)[C@H](Cc1ccccc1)NC(=O)[C@H](CC(N)=O)NC(=O)[C@H](C)NC(=O)[C@H](CC(C)C)NC(=O)[C@H](CCCNC(=N)N)NC(=O)[C@H](CCC(N)=O)NC(=O)[C@@H](NC(=O)[C@H](C)NC(=O)[C@@H]1CSSC[C@H](NC(=O)[C@@H](N)CCCCNC(=O)CC[C@H](NC(=O)CCCCCCCCCCCCCCCCCCC(=O)O)C(=O)O)C(=O)N[C@@H](CC(N)=O)C(=O)N[C@@H]([C@@H](C)O)C(=O)N[C@@H](C)C(=O)N[C@@H]([C@@H](C)O)C(=O)N1)[C@@H](C)O)C(=O)N1CCC[C@H]1C(=O)N[C@@H](CO)C(=O)N[C@@H](CO)C(=O)N[C@H](C(=O)N[C@@H](CC(N)=O)C(=O)N[C@H](C(=O)NCC(=O)N[C@@H](Cc1c[nH]cn1)C(=O)N[C@@H](CC(N)=O)C(=O)N[C@H](C(=O)N[C@@H](Cc1ccc(O)cc1)C(N)=O)[C@@H](C)O)C(C)C)[C@@H](C)O, also called compound 77) [N^ε1-[(4S)-4-carboxy-4-(19-carboxynonadecanoylamino)butanoyl]-[Arg17,Pro21,Pro27,His34]-h-amylin]	0.145	37.3	5.4
K([γGlu-C20 diacid])CNTATCATQRLAHFLRHSSPNFGAIPSSTPVGSNTY-NH2 (disulfide 2-7; N-terminus assumed; SMILES CC[C@H](C)[C@H](NC(=O)[C@H](C)NC(=O)CNC(=O)[C@H](Cc1ccccc1)NC(=O)[C@H](CC(N)=O)NC(=O)[C@@H]1CCCN1C(=O)[C@H](CO)NC(=O)[C@H](CO)NC(=O)[C@H](Cc1c[nH]cn1)NC(=O)[C@H](CCCNC(=N)N)NC(=O)[C@H](CC(C)C)NC(=O)[C@H](Cc1ccccc1)NC(=O)[C@H](Cc1c[nH]cn1)NC(=O)[C@H](C)NC(=O)[C@H](CC(C)C)NC(=O)[C@H](CCCNC(=N)N)NC(=O)[C@H](CCC(N)=O)NC(=O)[C@@H](NC(=O)[C@H](C)NC(=O)[C@@H]1CSSC[C@H](NC(=O)[C@@H](N)CCCCNC(=O)CC[C@H](NC(=O)CCCCCCCCCCCCCCCCCCC(=O)O)C(=O)O)C(=O)N[C@@H](CC(N)=O)C(=O)N[C@@H]([C@@H](C)O)C(=O)N[C@@H](C)C(=O)N[C@@H]([C@@H](C)O)C(=O)N1)[C@@H](C)O)C(=O)N1CCC[C@H]1C(=O)N[C@@H](CO)C(=O)N[C@@H](CO)C(=O)N[C@H](C(=O)N1CCC[C@H]1C(=O)N[C@H](C(=O)NCC(=O)N[C@@H](CO)C(=O)N[C@@H](CC(N)=O)C(=O)N[C@H](C(=O)N[C@@H](Cc1ccc(O)cc1)C(N)=O)[C@@H](C)O)C(C)C)[C@@H](C)O, also called compound 62)	0.044	12.3	0.539
K([γGlu-C20 diacid])CNTATCATQRLAHFLRHSSPNFGAIPSSTNVGSNTY-NH2 (disulfide 2-7; N-terminus assumed; SMILES CC[C@H](C)[C@H](NC(=O)[C@H](C)NC(=O)CNC(=O)[C@H](Cc1ccccc1)NC(=O)[C@H](CC(N)=O)NC(=O)[C@@H]1CCCN1C(=O)[C@H](CO)NC(=O)[C@H](CO)NC(=O)[C@H](Cc1c[nH]cn1)NC(=O)[C@H](CCCNC(=N)N)NC(=O)[C@H](CC(C)C)NC(=O)[C@H](Cc1ccccc1)NC(=O)[C@H](Cc1c[nH]cn1)NC(=O)[C@H](C)NC(=O)[C@H](CC(C)C)NC(=O)[C@H](CCCNC(=N)N)NC(=O)[C@H](CCC(N)=O)NC(=O)[C@@H](NC(=O)[C@H](C)NC(=O)[C@@H]1CSSC[C@H](NC(=O)[C@@H](N)CCCCNC(=O)CC[C@H](NC(=O)CCCCCCCCCCCCCCCCCCC(=O)O)C(=O)O)C(=O)N[C@@H](CC(N)=O)C(=O)N[C@@H]([C@@H](C)O)C(=O)N[C@@H](C)C(=O)N[C@@H]([C@@H](C)O)C(=O)N1)[C@@H](C)O)C(=O)N1CCC[C@H]1C(=O)N[C@@H](CO)C(=O)N[C@@H](CO)C(=O)N[C@H](C(=O)N[C@@H](CC(N)=O)C(=O)N[C@H](C(=O)NCC(=O)N[C@@H](CO)C(=O)N[C@@H](CC(N)=O)C(=O)N[C@H](C(=O)N[C@@H](Cc1ccc(O)cc1)C(N)=O)[C@@H](C)O)C(C)C)[C@@H](C)O, also called compound 70) [N^ε1-[(4S)-4-carboxy-4-(19-carboxynonadecanoylamino)butanoyl]-[His14,Arg17,Pro21,Pro27]-h-amylin]	0.04	17.9	0.715
K([γGlu-C20 diacid])CNTATCATQRLAEFLRHSSPNFGAIPSSTNVGSRTY-NH2 (disulfide 2-7; N-terminus assumed; SMILES CC[C@H](C)[C@H](NC(=O)[C@H](C)NC(=O)CNC(=O)[C@H](Cc1ccccc1)NC(=O)[C@H](CC(N)=O)NC(=O)[C@@H]1CCCN1C(=O)[C@H](CO)NC(=O)[C@H](CO)NC(=O)[C@H](Cc1c[nH]cn1)NC(=O)[C@H](CCCNC(=N)N)NC(=O)[C@H](CC(C)C)NC(=O)[C@H](Cc1ccccc1)NC(=O)[C@H](CCC(=O)O)NC(=O)[C@H](C)NC(=O)[C@H](CC(C)C)NC(=O)[C@H](CCCNC(=N)N)NC(=O)[C@H](CCC(N)=O)NC(=O)[C@@H](NC(=O)[C@H](C)NC(=O)[C@@H]1CSSC[C@H](NC(=O)[C@@H](N)CCCCNC(=O)CC[C@H](NC(=O)CCCCCCCCCCCCCCCCCCC(=O)O)C(=O)O)C(=O)N[C@@H](CC(N)=O)C(=O)N[C@@H]([C@@H](C)O)C(=O)N[C@@H](C)C(=O)N[C@@H]([C@@H](C)O)C(=O)N1)[C@@H](C)O)C(=O)N1CCC[C@H]1C(=O)N[C@@H](CO)C(=O)N[C@@H](CO)C(=O)N[C@H](C(=O)N[C@@H](CC(N)=O)C(=O)N[C@H](C(=O)NCC(=O)N[C@@H](CO)C(=O)N[C@@H](CCCNC(=N)N)C(=O)N[C@H](C(=O)N[C@@H](Cc1ccc(O)cc1)C(N)=O)[C@@H](C)O)C(C)C)[C@@H](C)O, also called compound 51)	0.372	14	5.22
K([γGlu-C20 diacid])CNTATCATQRLAHFLRHSSPNFGAIPSSTNVGSHTY-NH2 (disulfide 2-7; N-terminus assumed; SMILES CC[C@H](C)[C@H](NC(=O)[C@H](C)NC(=O)CNC(=O)[C@H](Cc1ccccc1)NC(=O)[C@H](CC(N)=O)NC(=O)[C@@H]1CCCN1C(=O)[C@H](CO)NC(=O)[C@H](CO)NC(=O)[C@H](Cc1c[nH]cn1)NC(=O)[C@H](CCCNC(=N)N)NC(=O)[C@H](CC(C)C)NC(=O)[C@H](Cc1ccccc1)NC(=O)[C@H](Cc1c[nH]cn1)NC(=O)[C@H](C)NC(=O)[C@H](CC(C)C)NC(=O)[C@H](CCCNC(=N)N)NC(=O)[C@H](CCC(N)=O)NC(=O)[C@@H](NC(=O)[C@H](C)NC(=O)[C@@H]1CSSC[C@H](NC(=O)[C@@H](N)CCCCNC(=O)CC[C@H](NC(=O)CCCCCCCCCCCCCCCCCCC(=O)O)C(=O)O)C(=O)N[C@@H](CC(N)=O)C(=O)N[C@@H]([C@@H](C)O)C(=O)N[C@@H](C)C(=O)N[C@@H]([C@@H](C)O)C(=O)N1)[C@@H](C)O)C(=O)N1CCC[C@H]1C(=O)N[C@@H](CO)C(=O)N[C@@H](CO)C(=O)N[C@H](C(=O)N[C@@H](CC(N)=O)C(=O)N[C@H](C(=O)NCC(=O)N[C@@H](CO)C(=O)N[C@@H](Cc1c[nH]cn1)C(=O)N[C@H](C(=O)N[C@@H](Cc1ccc(O)cc1)C(N)=O)[C@@H](C)O)C(C)C)[C@@H](C)O, also called compound 66)	0.027	20.1	0.542
K([γGlu-C20 diacid])CNTATCATQRLANFLRHSSPNFGAIPSSTNVGSHTY-NH2 (disulfide 2-7; N-terminus assumed; SMILES CC[C@H](C)[C@H](NC(=O)[C@H](C)NC(=O)CNC(=O)[C@H](Cc1ccccc1)NC(=O)[C@H](CC(N)=O)NC(=O)[C@@H]1CCCN1C(=O)[C@H](CO)NC(=O)[C@H](CO)NC(=O)[C@H](Cc1c[nH]cn1)NC(=O)[C@H](CCCNC(=N)N)NC(=O)[C@H](CC(C)C)NC(=O)[C@H](Cc1ccccc1)NC(=O)[C@H](CC(N)=O)NC(=O)[C@H](C)NC(=O)[C@H](CC(C)C)NC(=O)[C@H](CCCNC(=N)N)NC(=O)[C@H](CCC(N)=O)NC(=O)[C@@H](NC(=O)[C@H](C)NC(=O)[C@@H]1CSSC[C@H](NC(=O)[C@@H](N)CCCCNC(=O)CC[C@H](NC(=O)CCCCCCCCCCCCCCCCCCC(=O)O)C(=O)O)C(=O)N[C@@H](CC(N)=O)C(=O)N[C@@H]([C@@H](C)O)C(=O)N[C@@H](C)C(=O)N[C@@H]([C@@H](C)O)C(=O)N1)[C@@H](C)O)C(=O)N1CCC[C@H]1C(=O)N[C@@H](CO)C(=O)N[C@@H](CO)C(=O)N[C@H](C(=O)N[C@@H](CC(N)=O)C(=O)N[C@H](C(=O)NCC(=O)N[C@@H](CO)C(=O)N[C@@H](Cc1c[nH]cn1)C(=O)N[C@H](C(=O)N[C@@H](Cc1ccc(O)cc1)C(N)=O)[C@@H](C)O)C(C)C)[C@@H](C)O, also called compound 60) [N^ε1-[(4S)-4-carboxy-4-(19-carboxynonadecanoylamino)butanoyl]-[Arg17,Pro21,Pro27,His35]-h-amylin]	0.351	15.3	5.36

Source: patent US20140087995A1 (published 2014)
